The values below come from patent US11203633B2, “Polynucleotides encoding antibodies or antigen binding fragments thereof that bind pseudomonas perv” (priority 2011, dated 2021).

Positions count from the first letter of the chain named.

Test [1] relates to P. aeruginosa (6077 exoU+; 6206) lysis of rabbit red blood cells. Nature of the test: Rabbit red blood cell (RBC) lysis inhibition assay. Format: cell-based, Pseudomonas aeruginosa. To be noted: strain 6077; FIG. 12D-E. The method, then: Percent inhibition of cytotoxicity analysis was analysed for the parental V2L2 mAb, mAb166 (positive control) and R347 (negative control), where the antibodies were administered to cultured broncho-epithelial cell line A549 combined with log-phase P. aeruginosa strain 6077 (exoU+) at a MOI of approximately 10. A549 lysis was assayed by measuring released lactate dehydrogenase (LDH) activity and lysis in the presence of mAbs was compared to wells without mAb to determine percent inhibition. The V2L2 mAb, mAb166 (positive control) and R347 (negative control) were evaluated for their ability to prevent lysis of RBCs, where the antibodies were mixed with log-phase P. aeruginosa 6077 (exoU^+) and washed rabbit red blood cells (RBCs) and incubated for 2 hours at 37°. Intact RBCs were pelleted and the extent of lysis determined by measuring the OD405 of the cell-free supernatant. Lysis in the presence of anti-PcrV mAbs was compared to wells without mAb to determine percent inhibition. The positive control antibody, mAb166, is a previously characterized anti-PcrV antibody (J Infect Dis. 186: 64-73 (2002), Crit Care Med. 40: 2320-2326 (2012)).

Test [2] concerns luminescent P. aeruginosa serogroup 05 strain (PAO1.lux). Nature of the test: Opsonophagocytic killing (OPK) assay, PAO1.lux. Format: cell-based, Pseudomonas aeruginosa. To be noted: FIG. 11 A-Q. The method, then: This example describes the evaluation of prioritized human IgG1 antibodies to promote OPK of P. aeruginosa. […] OPK assays were performed as described in (DiGiandomenico, A., et al., Infect Immun 72, 7012-7021 (2004)), with modifications. Briefly, assays were performed in 96-well plates using 0.025 ml of each OPK component; P. aeruginosa strains; diluted baby rabbit serum; differentiated HL-60 cells; and monoclonal antibody. In some OPK assays, luminescent P. aeruginosa strains, which were constructed as described (Choi, K. H., et al., Nat Methods 2, 443-448 (2005)), were used. Luminescent OPK assays were performed as described above but with determination of relative luciferase units (RLUs) using a Perkin Elmer ENVISION Multilabel plate reader (Perkin Elmer).

The test system of test [3] is P. aeruginosa strains (PAO1, 33356, 6294, 6077, 6206, PA103A). Nature of the test: Acute pneumonia model in mice, survival. Format: in vivo, Pseudomonas aeruginosa. To be noted: strain 6077 (1×10^6 CFU/animal) intranasal; mAbs IP 24 hours prior; 11A6, 3G5, V2L7 5 or 1 mg/kg, 29D2 and V2L2 25 mg/kg; FIG. 13E-G. The method, then: Antibodies or PBS were administered 24 hours before infection in each model. P. aeruginosa acute pneumonia, keratitis, and thermal injury infection models were performed as described (DiGiandomenico, A., et al., Proc Natl Acad Sci USA 104, 4624-4629 (2007)), with modifications. In the acute pneumonia model, BALB/c mice (The Jackson Laboratory) were infected with P. aeruginosa strains suspended in a 0.05 ml inoculum. In the thermal injury model, CF-1 mice (Charles River) received a 10% total body surface area burn with a metal brand heated to 92° C. for 10 seconds. Animals were infected subcutaneously with P. aeruginosa strain 6077 at the indicated dose. For organ burden experiments, acute pneumonia was induced in mice followed by harvesting of lungs, spleens, and kidneys 24 hours post-infection for determination of CFU.
The in vivo effect of administration of an anti-PcrV antibodies was studied in mice using an acute pneumonia model. Groups of mice were treated with either increasing concentrations of the V2L2 antibody, a positive control anti-PcrV antibody (mAb166), or a negative control (R347), as shown in FIG. 13 (A-B). Groups of mice were also treated with either increasing concentrations of the V2L2 antibody, the PcrV antibody PcrV-02, or a negative control (R347), as shown in FIG. 13 (C-D). Twenty-four hours after treatment, all mice were infected with 5×10^7 CFU (C) Pseudomonas aeruginosa 6294 (06) or (D) PA103A (O11).
Groups of mice were treated with either increasing concentrations of the 11A6, 3G5 or V2L7, the same concentrations of 29D2, 1F3, 1E6, V2L2, LE10, SH3, 4A8, 2H3, or 21F1, increasing concentrations of the 29D2, increasing concentrations of the V2L2, the PcrV antibody PcrV-02, or a negative control (R347), as shown in FIG. 13 (E-H). Mice were injected intraperitoneally (IP) with mAbs 24 hours prior to intranasal infection with Pseudomonas strain 6077 (1×10^6 CFU/animal).

B1: V2L2-GL: V2L2-germlined mAb (antibody, V domains shown)
VH: EVQLLESGGGLVQPGGSLRLSCAASGFTFSSYAMNWVRQAPGKGLEWVSAITISGITAYYTDSVKGRFTISRDNSKNTLYLQMNSLRAEDTAVYYCAKEEFLPGTHYYYGMDVWGQGTTVTVSS
VL: AIQMTQSPSSLSASVGDRVTITCRASQGIRNDLGWYQQKPGKAPKLVIYSASTLQSGVPSRFSGSGSGTDFTLSISSLQPDDFATYYCLQDYNYPWTFGQGTKVEIK
modifications: V2L2-GL VH; V2L2-MD and V2L2-GL VL
notes: V2L2-germlined mAb
Take B1: in test [1], the “prevention of RBC lysis” value was “demonstrated prevention of RBC lysis”.

B2: Psl0225: lead optimized anti-Psl clone; VH SEQ ID NO:290, VL SEQ ID NO:291 (antibody, V domains shown)
VH: QVQLQESGPGLVKPSETLSLTCTVSGGSISPYYWTWIRQPPGKGLELIGYIHSSGYTDYNPSLKSRVTISGDTSKKQFSLKLSSVTAADTAVYYCARAMDIEPHALDIWGQGTMVTVSS
VL: DIQLTQSPSSLSASVGDRVTITCRASQSIRSHLNWYQQKPGKAPKLLIYGASNLQSGVPSRFSGSGSGTDFTLTISSLQPEDFATYYCQQSDDGFPNFGGGTKVEIK
modifications: Psl0225-Germline VH; Psl0225-Germline VL
For B2, in test [2], the “OPK activity of lead optimized anti-Psl mAbs” value (from here on “OPK activity”) is “enhanced OPK activity”.

B3: Psl0337: lead optimized anti-Psl clone; VH SEQ ID NO:295, VL SEQ ID NO:296 (antibody, V domains shown)
VH: B2 VH with M99D, D100W, I101D, E102H, P103K
VL: B2 VL with Q90D, D92S, D93S, G94W, F95P, P96L, N97T
modifications: Psl0337-Germline VH; Psl0337-Germline VL
B3: in test [2], the “OPK activity” value is reported as “enhanced OPK activity”.

B4: Psl0588: lead optimized anti-Psl clone; VH SEQ ID NO:292, VL SEQ ID NO:293 (antibody, V domains shown)
VH: B2 VH with M99D, I101P, E102F, H104G, A105Y
VL: B2 VL with D93T, G94F, F95P, P96L, N97K
modifications: Psl0588-Germline VH
Regarding B4, in test [2], the “OPK activity” value is on record as “enhanced OPK activity”.

B5: 29D2: anti-PcrV mAb, epitope class 3 (antibody, V domains shown)
VH: EVQLLESGGGLVQPGGSLRLSCAASGFTFSSYAMSWVRQAPGKGLEWVSAISGSGYSTYYADSVKGRFTMSRDNSKNTLYLQMNSLRAEDTAVYYCAAEYSISSNYYYGMDVWGQGTTVTVSS
VL: DIQLTQSPSFLSASVGDRVTITCWASQGISSYLAWYQQKPGKAPKLLIYAASTLQSGVPSRFSGSGSGTEFTLTISSLQPEDFATYYCQQLNSSPLTFGGGTKVEIK
modifications: 29D2 VH; 29D2 VL
On to B5, for which the “prevention of RBC lysis” value in test [1] is reported as “demonstrated prevention of RBC lysis”. In test [3], the protection in vivo entry was “provides protection in vivo”.
